Data as given in IntAct's records for PubMed 21245319.

B1: Histone-lysine N-methyltransferase SETD7 (Homo sapiens), Q8WTS6 (parent)
chain: MDSDDEMVEEAVEGHLDDDGLPHGFCTVTYSSTDRFEGNFVHGEKNGRGKFFFFDGSTLEGYYVDDALQGQGVYTYEDGGVLQGTYVDGELNGPAQEYDTDGRLIFKGQYKDNIRHGVCWIYYPDGGSLVGEVNEDGEMTGEKIAYVYPDERTALYGKFIDGEMIEGKLATLMSTEEGRPHFELMPGNSVYHFDKSTSSCISTNALLPDPYESERVYVAESLISSAGEGLFSKVAVGPNTVMSFYNGVRITHQEVDSRDWALNGNTLSLDEETVIDVPEPYNHVSKYCASLGHKANHSFTPNCIYDMFVHPRFGPIKCIRTLRAVEADEELTVAYGYDHSPPGKSGPEAPEWYQVELKAFQATQQK

Variants of: B1
Conditions: with sir1_human SIRT1, Q96EB6
sir1_human SIRT1, Q96EB6, sequence (Q96EB6 whole entry): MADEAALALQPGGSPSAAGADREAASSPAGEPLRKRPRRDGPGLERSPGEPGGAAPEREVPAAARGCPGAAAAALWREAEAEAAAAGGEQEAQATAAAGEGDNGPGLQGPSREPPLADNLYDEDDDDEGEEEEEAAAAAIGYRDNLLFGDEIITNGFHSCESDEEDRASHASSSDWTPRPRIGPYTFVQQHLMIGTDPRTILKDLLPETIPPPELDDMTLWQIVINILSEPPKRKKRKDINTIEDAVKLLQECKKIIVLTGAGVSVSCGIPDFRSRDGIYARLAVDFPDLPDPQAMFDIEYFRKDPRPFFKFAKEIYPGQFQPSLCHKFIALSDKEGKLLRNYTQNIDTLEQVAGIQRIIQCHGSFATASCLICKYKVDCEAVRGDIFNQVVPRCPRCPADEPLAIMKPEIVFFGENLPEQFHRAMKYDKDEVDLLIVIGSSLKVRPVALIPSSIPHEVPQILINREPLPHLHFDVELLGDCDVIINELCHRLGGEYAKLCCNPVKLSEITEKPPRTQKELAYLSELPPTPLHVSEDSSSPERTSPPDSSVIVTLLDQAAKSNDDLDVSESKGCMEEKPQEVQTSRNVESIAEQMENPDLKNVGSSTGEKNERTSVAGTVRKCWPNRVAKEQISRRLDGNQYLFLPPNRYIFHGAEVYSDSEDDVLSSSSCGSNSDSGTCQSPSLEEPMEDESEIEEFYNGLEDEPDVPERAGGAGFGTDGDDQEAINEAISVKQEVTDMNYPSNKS

Row | Variant | effect of a mutation on the interaction
1 | H297A | decreasing interaction strength
